Test results taken from US20170165339A1 (IMMATICS BIOTECHNOLOGIES, published 2017).

Target: HLA-A*02 (human)
Assay: UV peptide-exchange ELISA, yield grade

Binder | peptide exchange yield
RLFPDFFTRVAL [RLFPDFFTRVAL (SEQ ID NO: 98)] | 20 to 49%
FLLPTGAEA [FLLPTGAEA (SEQ ID NO: 139)] | 20 to 49%
QLWQFLVTL [QLWQFLVTL (SEQ ID NO: 118)] | 50 to 75%
AIVDLIHDI [AIVDLIHDI (SEQ ID NO: 111)] | 20 to 49%
ALADFMLSL [ALADFMLSL (SEQ ID NO: 101)] | 50 to 75%
RLQDILWFL [RLQDILWFL (SEQ ID NO: 129)] | ≥ 75%
KVMATIEKV [KVMATIEKV (SEQ ID NO: 124)] | 20 to 49%
AIVKEIVNI [AIVKEIVNI (SEQ ID NO: 61)] | 20 to 49%
SQIPAQPSV [SQIPAQPSV (SEQ ID NO: 63)] | 20 to 49%
QMFQYFITV [QMFQYFITV (SEQ ID NO: 126)] | ≥ 75%
FIFDEAEKL [FIFDEAEKL (SEQ ID NO: 82)] | < 20%
FLQDLEQRL [FLQDLEQRL (SEQ ID NO: 90)] | 50 to 75%
TLFGYSVVL [TLFGYSVVL (SEQ ID NO: 74)] | 50 to 75%
SLDPSVTHL [SLDPSVTHL (SEQ ID NO: 109)] | 20 to 49%
QLIQTLHAV [QLIQTLHAV (SEQ ID NO: 114)] | 50 to 75%
VTSNSGILGV [VTSNSGILGV (SEQ ID NO: 131)] | 50 to 75%
GVVDPVHGV [GVVDPVHGV (SEQ ID NO: 122)] | 20 to 49%
LLVPTSGIYFV [LLVPTSGIYFV (SEQ ID NO: 107)] | 50 to 75%
AQADHLPQL [AQADHLPQL (SEQ ID NO: 88)] | 20 to 49%
ALNPELVQA [ALNPELVQA (SEQ ID NO: 62)] | 20 to 49%
LLVSHLYLV [LLVSHLYLV (SEQ ID NO: 96)] | 20 to 49%
VTPVTVSAV [VTPVTVSAV (SEQ ID NO: 120)] | < 20%
ALLAKILQI [ALLAKILQI (SEQ ID NO: 138)] | 50 to 75%
FLAVGLVDV [FLAVGLVDV (SEQ ID NO: 69)] | 50 to 75%
GQASYFYVA [GQASYFYVA (SEQ ID NO: 83)] | 20 to 49%

Binder | peptide exchange yield
GLLGSLFFL [GLLGSLFFL (SEQ ID NO: 95)] | ≥ 75%
TLIDEQDIPLV [TLIDEQDIPLV (SEQ ID NO: 77)] | 50 to 75%
HLSTIIHEA [HLSTIIHEA (SEQ ID NO: 135)] | 50 to 75%
VLNDILVRA [VLNDILVRA (SEQ ID NO: 85)] | 50 to 75%
SVVPDVRSV [SVVPDVRSV (SEQ ID NO: 65)] | 20 to 49%
TQSPATLSV [TQSPATLSV (SEQ ID NO: 128)] | 20 to 49%
AVGPVHNSV [AVGPVHNSV (SEQ ID NO: 76)] | 20 to 49%
KLYEADFVL [KLYEADFVL (SEQ ID NO: 80)] | 20 to 49%
KLDGNELDL [KLDGNELDL (SEQ ID NO: 127)] | 50 to 75%
SLGKFTFDV [SLGKFTFDV (SEQ ID NO: 112)] | ≥ 75%
ALLPRLHQL [ALLPRLHQL (SEQ ID NO: 133)] | ≥ 75%
AVIKFLELL [AVIKFLELL (SEQ ID NO: 75)] | 50 to 75%
SLFPDSLIV [SLFPDSLIV (SEQ ID NO: 64)] | 20 to 49%
FLLGVSKEV [FLLGVSKEV (SEQ ID NO: 110)] | 50 to 75%
SVDSHFQEV [SVDSHFQEV (SEQ ID NO: 86)] | 20 to 49%
ALCPRIHEV [ALCPRIHEV (SEQ ID NO: 84)] | ≥ 75%
GLLFSLRSV [GLLFSLRSV (SEQ ID NO: 92)] | ≥ 75%
FINDSIVYL [FINDSIVYL (SEQ ID NO: 106)] | 50 to 75%
YLLQSVNQLLL [YLLQSVNQLLL (SEQ ID NO: 99)] | 20 to 49%
KMPDVELFV [KMPDVELFV (SEQ ID NO: 117)] | 50 to 75%
YLVSEIFKA [YLVSEIFKA (SEQ ID NO: 103)] | 50 to 75%
FLFGGVLMTL [FLFGGVLMTL (SEQ ID NO: 136)] | 20 to 49%
KLIFSVEAV [KLIFSVEAV (SEQ ID NO: 66)] | 50 to 75%
NALDKVLSV [NALDKVLSV (SEQ ID NO: 81)] | 50 to 75%
VLDPALPALV [VLDPALPALV (SEQ ID NO: 123)] | 20 to 49%

Binder | peptide exchange yield
ALLGMIIVGV [ALLGMIIVGV (SEQ ID NO: 100)] | < 20%
ALLGTKILL [ALLGTKILL (SEQ ID NO: 105)] | 50 to 75%
ALISWQPPRA [ALISWQPPRA (SEQ ID NO: 104)] | 50 to 75%
LLLGDSALYL [LLLGDSALYL (SEQ ID NO: 70)] | 50 to 75%
QLAPVFQRV [QLAPVFQRV (SEQ ID NO: 89)] | 20 to 49%
VLLDIQEVFQI [VLLDIQEVFQI (SEQ ID NO: 102)] | 50 to 75%
FTIFRTISV [FTIFRTISV (SEQ ID NO: 121)] | 50 to 75%
GLAVPTPSV [GLAVPTPSV (SEQ ID NO: 134)] | 50 to 75%
VLHSKFWVV [VLHSKFWVV (SEQ ID NO: 71)] | 50 to 75%
SLADYEHFV [SLADYEHFV (SEQ ID NO: 125)] | ≥ 75%
TVVTRLDEI [TVVTRLDEI (SEQ ID NO: 78)] | 20 to 49%
FIIQGLRSVGA [FIIQGLRSVGA (SEQ ID NO: 119)] | 50 to 75%
SLSNRLYYL [SLSNRLYYL (SEQ ID NO: 68)] | 50 to 75%
FLTAINYLL [FLTAINYLL (SEQ ID NO: 72)] | 50 to 75%
FLERGLESA [FLERGLESA (SEQ ID NO: 113)] | 20 to 49%
FLDKVLVAA [FLDKVLVAA (SEQ ID NO: 141)] | 50 to 75%
SLDPDTLPAV [SLDPDTLPAV (SEQ ID NO: 115)] | 20 to 49%
LLLPAVPVGA [LLLPAVPVGA (SEQ ID NO: 94)] | 50 to 75%
ILLKNLVTI [ILLKNLVTI (SEQ ID NO: 108)] | 20 to 49%
VTFKEYVTV [VTFKEYVTV (SEQ ID NO: 79)] | 20 to 49%
TLLQRLTEV [TLLQRLTEV (SEQ ID NO: 67)] | 50 to 75%
YTLREVDTV [YTLREVDTV (SEQ ID NO: 73)] | 20 to 49%
TIYKDFVYI [TIYKDFVYI (SEQ ID NO: 87)] | 20 to 49%
ILGEVLAQL [ILGEVLAQL (SEQ ID NO: 132)] | 50 to 75%
SLLGGTFVGI [SLLGGTFVGI (SEQ ID NO: 130)] | 50 to 75%
